Source: patent publication US20250346685A1 (published 2025)
Positions count from the first letter of the chain named.

T1: human CD3εγ-Fc heterodimer (human)
T1 construct: also called human CD3εγ recombinant protein; human CD3εγ protein
T1 chain 1: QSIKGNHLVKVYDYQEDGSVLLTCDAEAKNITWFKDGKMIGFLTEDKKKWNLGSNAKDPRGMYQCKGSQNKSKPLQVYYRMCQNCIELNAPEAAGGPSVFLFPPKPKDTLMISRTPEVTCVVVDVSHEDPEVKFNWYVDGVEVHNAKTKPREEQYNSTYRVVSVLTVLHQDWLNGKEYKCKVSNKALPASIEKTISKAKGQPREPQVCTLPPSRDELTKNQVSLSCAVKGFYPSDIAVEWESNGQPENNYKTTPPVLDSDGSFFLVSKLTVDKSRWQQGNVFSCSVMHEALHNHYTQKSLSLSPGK
T1 chain 2: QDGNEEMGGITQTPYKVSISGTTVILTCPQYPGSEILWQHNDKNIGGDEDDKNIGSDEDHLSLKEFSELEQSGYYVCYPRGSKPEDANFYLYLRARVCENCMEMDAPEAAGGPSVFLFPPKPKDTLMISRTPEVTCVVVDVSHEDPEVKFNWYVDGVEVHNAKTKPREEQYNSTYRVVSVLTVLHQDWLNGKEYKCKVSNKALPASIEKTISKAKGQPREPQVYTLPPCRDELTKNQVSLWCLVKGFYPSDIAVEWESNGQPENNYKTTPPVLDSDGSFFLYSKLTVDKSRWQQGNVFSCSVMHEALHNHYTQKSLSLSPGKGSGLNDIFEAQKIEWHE

T2: human CD20 on cells (CHO-human CD20 stably transfected cells; SU-DHL-4, Raji, NALM-6 tumor cells) (human, UniProt P11836 1-297)
T2 construct: whole, on cells; also called Human CD20-CHO; cellular CD20 receptor
T2 sequence (looked up): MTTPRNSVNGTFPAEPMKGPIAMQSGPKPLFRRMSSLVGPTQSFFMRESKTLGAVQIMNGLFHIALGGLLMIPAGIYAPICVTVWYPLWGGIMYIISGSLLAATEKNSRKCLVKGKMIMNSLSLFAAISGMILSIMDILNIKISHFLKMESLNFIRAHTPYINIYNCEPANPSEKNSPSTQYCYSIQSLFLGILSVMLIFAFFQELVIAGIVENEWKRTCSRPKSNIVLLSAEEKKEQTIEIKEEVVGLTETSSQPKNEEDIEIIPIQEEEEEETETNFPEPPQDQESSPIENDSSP

T3: cynomolgus monkey CD20 on CHO stably transfected cells (cynomolgus monkey, UniProt M4ZHZ6 1-297)
T3 construct: whole, on cells; also called Cynomolgus monkey CD20-CHO; CHO-cynomolgus monkey CD20
T3 sequence: T2 sequence (looked up) with S25P, F31L, T51A, A157V, K217R, N226S, I227V, T239V

B1: BCMA × CD3 κλ004 (bispecific antibody, human IgG4 S228P, kappa, lambda)
light 1: DIVLTQSPASLAVSPGQRATITCRASKSVTTSGYSYIHWYQKKPGQPPKLLIYLASDLEAGVPARFSGSGSGTDFTLTINPVEAEDTANYYCQHSRELPWTFGQGTKVEIKRTVAAPSVFIFPPSDEQLKSGTASVVCLLNNFYPREAKVQWKVDNALQSGNSQESVTEQDSKDSTYSLSSTLTLSKADYEKHKVYACEVTHQGLSSPVTKSFNRGEC
heavy 1: QVQLVQSGSELKKPGASVKVSCKASGYIFTNFGMNWVREAPGQGLEWMGWINTYTGEQIYADGFTGRFVFSLDTSASTAYLQISSLKAEDTAVYFCARGEIYYGYDVGFVYWGQGTLVTVSSASTKGPSVFPLAPCSRSTSESTAALGCLVKDYFPEPVTVSWNSGALTSGVHTFPAVLQSSGLYSLSSVVTVPSSSLGTKTYTCNVDHKPSNTKVDKRVESKYGPPCPPCPAPEFEGGPSVFLFPPKPKDTLMISRTPEVTCVVVDVSQEDPEVQFNWYVDGVEVHNAKTKPREEQFNSTYRVVSVLTVLHQDWLNGKEYKCKVSNKGLASSIEKTISKAKGQPREPQVCTLPPSQEEMTKNQVSLSCAVKGFYPSDIAVEWESNGQPENNYKTTPPVLDSDGSFFLVSKLTVDKSRWQEGNVFSCSVMHEALHNHYTQKSLSLSLGK
light 2: QAVVTQEPSLTVSPGGTVTLTCRSSTGAVTTSNYANWVQEKPGQAPRGLIGGTNKRAPWTPARFSGSLLGGKAALTITGAQAEDEAEYYCVLWYSNLWVFGGGTKLTVLGQPKAAPSVTLFPPSSEELQANKATLVCLISDFYPGAVTVAWKADSSPVKAGVETTTPSKQSNNKYAASSYLSLTPEQWKSHRSYSCQVTHEGSTVEKTVAPTECS
heavy 2: EVQLVESGGGLVQPGGSLRLSCAASGFTFNTYAMNWVRKAPGKGLEWVGRIRSKYNNYATYYADSVKDRFTISRDDSKNSLYLQMNSLKTEDTAVYYCVRHGNFGNSYVSWFAYWGQGTLVTVSSASTKGPSVFPLAPCSRSTSESTAALGCLVKDYFPEPVTVSWNSGALTSGVHTFPAVLQSSGLYSLSSVVTVPSSSLGTKTYTCNVDHKPSNTKVDKRVESKYGPPCPPCPAPEFEGGPSVFLFPPKPKDTLMISRTPEVTCVVVDVSQEDPEVQFNWYVDGVEVHNAKTKPREEQFNSTYRVVSVLTVLHQDWLNGKEYKCKVSNKGLASSIEKTISKAKGQPREPQVYTLPPCQEEMTKNQVSLWCLVKGFYPSDIAVEWESNGQPENNYKTTPPVLDSDGSFFLYSKLTVDKSRWQEGNVFSCSVMHEALHNHYTQKSLSLSLGK
notes: also called BCMA×CD3 κλ bispecific antibody
B2: CD20 × CD3 κλ001 (bispecific antibody, human IgG4 S228P, kappa, lambda)
light 1: not shown
heavy 1: EVQLLESGGGVVQPGGSLRLSCAASGFTFNDYAMHWVRQAPGKGLEWVSTISWNSGSIGYADSVKGRFTISRDNSKNTLYLQMNSLRAEDTAVYYCAKDIQYGNYYYGMDYWGQGTLVTVSSASTKGPSVFPLAPCSRSTSESTAALGCLVKDYFPEPVTVSWNSGALTSGVHTFPAVLQSSGLYSLSSVVTVPSSSLGTKTYTCNVDHKPSNTKVDKRVESKYGPPCPPCPAPEFEGGPSVFLFPPKPKDTLMISRTPEVTCVVVDVSQEDPEVQFNWYVDGVEVHNAKTKPREEQFNSTYRVVSVLTVLHQDWLNGKEYKCKVSNKGLASSIEKTISKAKGQPREPQVCTLPPSQEEMTKNQVSLSCAVKGFYPSDIAVEWESNGQPENNYKTTPPVLDSDGSFFLVSKLTVDKSRWQEGNVFSCSVMHEALHNHYTQKSLSLSLGK
light 2: B1 light 2 with E40Q
heavy 2: B1 heavy 2 with K39Q
notes: also called anti-CD20×CD3 κλ bispecific antibody
B3: CD20 × CD3 κλ005 (bispecific antibody, human IgG4 S228P, kappa, lambda)
light 1: not shown
heavy 1: B2 heavy 1
light 2: B1 light 2
heavy 2: B1 heavy 2
notes: Human IgG4 knob-into-hole Fc; charge variants only in the CD3 arm; also called anti-CD20×CD3 κλ bispecific antibody

Legend:
[1] = target: T4, human CD3 on T cells (Jurkat cells; human peripheral blood CD4+ and CD8+ T-cells) (human, UniProt P07766 23-207); experiment: flow cytometry on human peripheral blood CD4+ T-cells
T4 construct: whole, on cells; also called CD4T; CD4 + T
Experimental: (§1) Fresh human peripheral blood was taken and PBMC was isolated by Ficoll. Paque Plu (GE, 17-1440-03). PBMC was adjusted to 5×10⁵ cells/mL with 4% calf serum (Hyclone, SH30626.06), 100 μL/well was added to a 96-well U-plate, the supernatant was centrifuged off and 100 μL of gradient diluted antibody (with starting concentration of 1800 nM, 3-fold dilution, 10 gradients) was added to each well and incubated for 60 min at 4° C. 50 μL/well of Alexa Fluro647 labeled goat anti-human IgG Fc (1:300 dilution) was added to the secondary antibody, with ice bath for 20 min, and 50 μL/well PI added after washing once, incubated for 5 min, and flow cytometer (BD C6) was used for detection. The control antibody REGN5458 was synthesized and prepared according to US20200024356.

[2] = target: T4, human CD3 on T cells (Jurkat cells; …); experiment: flow cytometry on human peripheral blood CD8+ T-cells
Experimental: as §1

[3] = target: T1, human CD3εγ-Fc heterodimer; experiment: SPR (Biacore T200), antigen amine-coupled on CM5 chip, antibody as analyte, 1:1 model
Experimental: 10 μg/mL human or cynomolgus monkey BCMA or CD3εγ recombinant antigen was bound to a CM5 chip (GE healthcare) by amino conjugating, while the amount of antigen bound was controlled to approximately 200 RU. After baseline plateau, gradient diluted antibodies (7 gradients of 2-fold dilutions from 10 μg/mL) were flowed through the chip at a flow rate of 30 μL/min for a binding time of 350 seconds and a dissociation time of 600 seconds. Kinetic constants were fitted using Biacore T200 evaluation software with a 1:1 binding model.

[4] = target: T2, human CD20 on cells (CHO-human CD20 …); experiment: flow cytometry on CHO-human CD20 stably transfected cells
Experimental: (§2) CHO-human CD20 and CHO-cynomolgus monkey CD20 stably transfected cells prepared in Example 1 in logarithmic growth phase were adjusted to 5×10⁵ cells/ml with 4% calf serum (Hyclone, SH30626.06), 100 μl/well cell suspension was added to 96-well U-plate, 300 g thereof was centrifuged for 5 min, the supernatant was discarded, and 100 μL of gradient diluted antibody (with starting concentration of 1800 nM, 3-fold dilution, 10 gradients) was added to each well and incubated at 4° C. for 60 min. 50 μL/well Alexa Fluro647 labeled goat anti-human IgG Fc (1:300 dilution) was added to the secondary antibody and incubated on ice for 20 min. After washing once, 50 μL/well propidium iodide (PI) solution (1:300) was added, incubated for 5 min, and performed with detection by flow cytometry.

[5] = target: T3, cynomolgus monkey CD20 on CHO stably …; experiment: flow cytometry on CHO-cynomolgus monkey CD20 stably transfected cells
Experimental: as §2

| Binder | EC50 [1] | EC50 [2] | Kd [3] | EC50 [4] | EC50 [5] |
| --- | --- | --- | --- | --- | --- |
| B1 | 79 nM | 67 nM | 32 nM |  |  |
| B2 |  |  |  | 10 nM | 12 nM |
| B3 |  |  |  | 9 nM | 14 nM |
